The values that follow come from publication PMC12823590.

This assay deals with recombinant OsLIKE1-KD from E. coli (GST-OsLIKE1-KD and OsLIKE1-KD-His) (rice). Put plainly: native gel or EMSA. For orientation: A gel shift assay detects complexes by their altered migration in electrophoresis.

Broadly, the stoichiometry N is the number of molecules, sites or subunits per partner or assembly. With “recombinant OsLIKE1-KD from E. coli (GST-OsLIKE1-KD and OsLIKE1-KD-His) (domain or fragment)”, the stoichiometry N amounted to 2.
